Assay results as given in the DeepSol protein solubility set.

Assay: soluble on expression in E. coli; label from the status in PepcDB or PDB records

Sequence	soluble on expression in E. coli
MSTEPLVVGAVAYTPNVVPIWEGIRGYFQDSESPDTQMDFVLYSNYARLVDSLIAGHIDIAWNTNLAYVRTVLQTGGRCTPLAQRDTDVDYTTVFVAHAGSDLHGAKDIAGKRLALGSADSAHAAILPLYYLRRAGIAESDLQVIRFDTDIGKHGDTGRSELDAVDAVLAGEADVAAIGSSTWAAMGAAELMGESLTEVWRTDGYCHCMFTALDTLPAERYQPWLDRLLAMSWDDSEHRKILELEGLRRWVPPHLDGYKPLFEAVQEQGIDPRW	not soluble
MPGIDIVIVNWNSGNQLRECLRSIGNLVGEAEPLTVTVVDNASCDGSADGLPEPSCPLRVIRNRANLGFGRASNLGAREGSADYLLFLNPDTRLHPGALSIPLGFMESETGRHVGICGVQCLDETGGVARCCARFPTAWRLVGQALGLDRLFPRWIPPHFLGEWPHDSDRDVDQVIGAFFFVRRAVFEQLGGFDERFFVYYEDLDFALRARRAGWGSRYLAGARIFHRGGGVSRQISARRLHYLTHSKLRYARKHFAGIDAFLVSAAVLLLEPLARSAYALGRGRPGEFADTWKAFGGLYASLCRPGENGRLEHHHHHH	not soluble
MYEQACTTILVGKKATVDGSTMIARNDDTFMPITPQKFIVHPAVHGRNETLTSGKNGFTAPLPADGYRYQAVPNIEVAEKGVFEENGFNEKNVGVSSTESVYGNEHTLTFDPFVPNGLAEDSLPTMLTPFIDSARGGVEYLGQLIAKYGSPEGNGVLFNDKDDVWYMEIVTGHHWVAQRIPDDAYAVAANQVAIQWVDFDDPDNFMWSDGIQEFVAEHHLNPDKEGFNFRHIFGTDNEKDRHYNTPRVWYGQRYFNPEIEQDPQSSELPFICHAAKKISVADVEFVLGSHYNETKYDPFLNTPEAKKFRPISMNRTQNSHVMQVRNDVPAEQSAIMWMTFGVPAFAPYLPFHANVSETDPSFANTPLKHDMNSAYWLYRTLSMIVESHYADFVQDDIDYLKECRIELGQFVAATDEQAAKLSGDELTAFLTEQDKVMVAKMRDKAQALIGQLVTKGLTLSKLTYNVDINLLEHHHHHH	not soluble
MAHHHHHHMWAKYSSSAVEEASKQAKSFATYPSSTPDMSGDEKEAFHETNSRDAFTVALLKHVARNLGVQYMGDRVETSDSIVMDKLGRIKAEIRSRERLLGVENMGLIPLFIEAGDSSLTCEDSLIYYKKALDIVEANKDIKRDSNMMNDVGVSSFADLGSRFFRYGQYQVAERLFTMAAAISRDKVTGVAEEISFSTAQCGSQKSLQRLKGHLWDWKKAAEAANEDLSTLLSDATRNTHRFREMRDACSQTDLAEHRVAMPASQFIGTKREMKGLKGTRNGEELKRLVEYVFDPMSVEDGFTRQLLPKGSRNTTRLLSEHFTGSNPCLALRESIDCITSRIGAKADSINSSGGALRRELQTR	not soluble
MELVYMDGKKEPYTTSEIIAECAEVQHHTITRLIRENKADFEELGILGFKIHKLDTRGQPKKSYILNEQQATFLITYLKNTETVRQFKLNLVKAFFEMREELSEIRLQRALEKPKRKTLHDSIETWPNAPKHAHSTMNNLLLKAVTDMNAKQLREERGGYNGIDSLTSEELEQYQAFEDMAIAMIELKMSYQEIKTMMFRSKKIS	not soluble
SVGHLHLQAMGDTREQSRDGLLDSPDSGLPPSPSPSPPFYALSPGTLDTRTTTEAPAAPSLFQTPPALEMRSRLLPVFFGESIEVDPEPAHEIRCNSEITYASERYFRDKIFYAPVPTVTAYSETIVAAPNCTWRSYRSQLTLEPRPRALRFGSTAIIFPKLARSSFRTTLHCSLGQPRHWYSSSLQLRRCGDPTPGPSCPDVL	soluble
MSLKIAIVGCGAMGSVYAGLLASAGNSLWIVDRWKAHVEAINSRGLRLEGPQRDLTAFAHASTTAPDEPMDLVIIAVKASDVETGAQQTLSMIGPETIVLTIQNGLGSADAVAQVVGVDRLAVGIASGFGASLKGPGHAHHNAMQALRFGAYSSLPYERVVAVARVWESAGFDAKAIRDIAVMQWEKLICNVAYSAPCALTGMTVGEVMNDPCMGPVSQAAATEAWSVARALGIQIDVDDPVAHVRAFGARMPAAKPSALLDHEAGRISEIDVINGAVPTQGNKLGIATPVNSTLTQLVRVKERQFREGHHHHHH	soluble
MAHHHHHHMGLMLPKPILSKVVDRAGNSFVNAACASQNGFRNSMEDAHMLVATDDADVAYFGIFDGHSNAECSAYVARELPQRLKKLPESITAEMLEKVCIEVDEAYMKTSTEGGTTGTFCVIRKDLTVTIANVGDSRILVCRGGKLIFATEDHKPYIPGETERIVACGGSVVSNRVDGDLAVSRAFGDASFKVKGTKDYRMQKVIAVPDVSVLQCEPNDFIILACDGVFEGNFSNEDVCQFVWEQQQNCWDDLAVVACRVCDEAIRCGSKDNISCLVVQLAEGASRVKAFGATSFVPGPPFPRNQQPCRAAYAQMAELGHTTTAAALQTRYQLLQAFSKNKLNSQPPVMRTAFEMSDEVDVETEWSFFGKGPAPGNEKNFFEALANTGNSS	soluble
MGSDKIHHHHHHMQVGDRIVVRQEEFDTIGHVLSVDPLIVRPHARGGLPSNAEPVRIDNPLMIKRLSPRTVRNADIRAIEVATAKAFPGIEHTWCGQWLLRAGDGVTERSNSAAPLGPQALFTPVPYEEIKEFYRRHNLPALILVPERIAPAIPDDGPEIIVMTHPLDNVSEIDDVHAEFLDQPDDDWLELYHFRGKALPRHALELLRTTIDGRMCFGRLKRDGKTVAITRGTITDGYLGYSAVEVAPEYRRQGLATELGAAMLAWGKAHGAHTAYLQVIESNAAGIGLYHKLGFVEHHRHKYVRVS	not soluble
MGSDKIHHHHHHMLSVFVVNLRSNSAPFSFSRLLMHTTIVNERSLRTCNFPITLQDIRTLKELYRLKAETRDLRKPIVRNIMKQRVVGKGCLESLKNALYSLETIYIDDYTGQRLLRIDGMKQIEVDLTYEIRELQKDIYYLEYGEDRFIEYLAKFIPGFTDYVTEGVEMLRGKSFNAFITDRDGTTNNYCGRYRSSIQPIYNSVFLSRFAKNCCRYPMIVTSAPLKDFGILNVSINPEHIFVYAGSKGREFIDIDGQFHSFPIEPGKQELIRLLNERMQLLLLDPSFEKFNFIGSALQMKFGQTTIARQDITRSVNEAESAAFLEKIKGIVRDIDPEGKNFRIEDTGLDIEIILTIDVDPKTGMIRDFDKGDGLEFICRKMNIDHTGEPVLVCGDTSSDIPMLKKAMEMYDDVWAIFVTRDEKLMQRVREICPKSYMVPYPDILLTILGLLSL	not soluble
MPSSSPSMDESRRSAVPPKEPAGRICTVCSDRANGYNFGVLTCESCKAFFRRNASKHKEIKCPFSDSCQITSASRKFCQACRLNKCFAVGMNSEWLNDLKPKSSIVSGKFKRKKPDMKNNLKVEVDDTEEDLENDDEEQISVPKALLEKLINKANEKSKDRCTCKCQCGFYPITQRLTAYEPKDTTAVNSPQDISFSHHLHHSDSFYSSSTSTLSPMSVISCAPSSHDSSGYNTSQLVTQSPTNYTVSPASIPSSITELSPQMPSQYPPMLSPFQFGVMAQMAAPANFLNFPPMPERTWTPIQAVSTVPVTETLPPNLLEQIHSKIDKYIGVLNEDEITLLEELHVQNEPLNAPLIQWHNPKSIDGVFRIIEEALRRIVNMACQLSLFRELHVDDRKNLLKSGFGELLIVRGLMAYDKSDNSWNHSFGVRGKMEVKVEVLKNPKLEEHYKAHMNLLSTFGEDVRNNEHLMLIFNAAVIFHPHVSNLRDSKRVHSTQAKYFQMLLKLLTFEYGKSRADIAYSNLLNQVVELHRVNRTLLRVFYGLDIAQLDPLIRELCSFE	not soluble
MAHHHHHHMSSVDSTHRLLHPCTGILPSASLHGRHSIALAPPPTLPPPPLLHTRIPIHIHIIHYATLNPATFLDHSTQLDYEMPTRFKKCRHQRGSTFCGYGRVGKHRKHESGRGNAGGMHHHRINFDKYHPGYFGKLGMDHYHRKKNPMWKPTINLNNLSRLIAAEEAAKAAKGGTLPVVDLQSSGYAKLLGNGHIQVPCIVKARYVSKLADKKIRKAGGAVVLQA	not soluble
MTVSPIDPVKLEKLAEVAIKVGLQLQKDQDLVITAPLAALPLVRLLTKHAYIAGGGLVTTFYSDEETTLSRYRHASDANFDRASGWLYEGMAKAYANGAARLAIAGDNPMLLAEEDPAKVARANKANSTAYKPALEKISNFDINWNIISYPNPSWAKQVFPGLTEDEAVRKLADAIFAASRVDVADPVAAWAQHNANLAKRSAWLNGERFSALHFTGPGTDVKIGLADGHEWHGGASMAKNGVTCNPNIPTEEVFTTPHALRVDGYVSSTKPLSHQGTLIDDIQVKFEAGRIVEAKASKGEAVLNKVLDTDEGARRLGEVALVPHSSPISASGILFYNTLFDENASCHIALGQCYSKCFLDGASLSQDQIKAQGGNSSLIHIDWMIGSNKVDIDGVKPDGSTVPVMRKGEWA	not soluble
